By Kd is commonly meant the constant that tells how readily two partners part at equilibrium.

Common to all, as to assay: yeast scFv FACS
Experiment [1] has as its target BoNT/A light chain (recombinant) (Clostridium botulinum, UniProt P0DPI0 1-448).
Experiment [2] addresses BoNT/A1 holotoxin (Hall hyper) (Clostridium botulinum, UniProt P0DPI0 2-1296).
Experiment [3] concerns the target BoNT/A2 holotoxin (FRI-H1A2) (Clostridium botulinum, UniProt Q45894 2-1296).
The next experiment concerns the target T1, BoNT/C1 holotoxin (Clostridium botulinum, UniProt P18640 2-1291).
T1 sequence: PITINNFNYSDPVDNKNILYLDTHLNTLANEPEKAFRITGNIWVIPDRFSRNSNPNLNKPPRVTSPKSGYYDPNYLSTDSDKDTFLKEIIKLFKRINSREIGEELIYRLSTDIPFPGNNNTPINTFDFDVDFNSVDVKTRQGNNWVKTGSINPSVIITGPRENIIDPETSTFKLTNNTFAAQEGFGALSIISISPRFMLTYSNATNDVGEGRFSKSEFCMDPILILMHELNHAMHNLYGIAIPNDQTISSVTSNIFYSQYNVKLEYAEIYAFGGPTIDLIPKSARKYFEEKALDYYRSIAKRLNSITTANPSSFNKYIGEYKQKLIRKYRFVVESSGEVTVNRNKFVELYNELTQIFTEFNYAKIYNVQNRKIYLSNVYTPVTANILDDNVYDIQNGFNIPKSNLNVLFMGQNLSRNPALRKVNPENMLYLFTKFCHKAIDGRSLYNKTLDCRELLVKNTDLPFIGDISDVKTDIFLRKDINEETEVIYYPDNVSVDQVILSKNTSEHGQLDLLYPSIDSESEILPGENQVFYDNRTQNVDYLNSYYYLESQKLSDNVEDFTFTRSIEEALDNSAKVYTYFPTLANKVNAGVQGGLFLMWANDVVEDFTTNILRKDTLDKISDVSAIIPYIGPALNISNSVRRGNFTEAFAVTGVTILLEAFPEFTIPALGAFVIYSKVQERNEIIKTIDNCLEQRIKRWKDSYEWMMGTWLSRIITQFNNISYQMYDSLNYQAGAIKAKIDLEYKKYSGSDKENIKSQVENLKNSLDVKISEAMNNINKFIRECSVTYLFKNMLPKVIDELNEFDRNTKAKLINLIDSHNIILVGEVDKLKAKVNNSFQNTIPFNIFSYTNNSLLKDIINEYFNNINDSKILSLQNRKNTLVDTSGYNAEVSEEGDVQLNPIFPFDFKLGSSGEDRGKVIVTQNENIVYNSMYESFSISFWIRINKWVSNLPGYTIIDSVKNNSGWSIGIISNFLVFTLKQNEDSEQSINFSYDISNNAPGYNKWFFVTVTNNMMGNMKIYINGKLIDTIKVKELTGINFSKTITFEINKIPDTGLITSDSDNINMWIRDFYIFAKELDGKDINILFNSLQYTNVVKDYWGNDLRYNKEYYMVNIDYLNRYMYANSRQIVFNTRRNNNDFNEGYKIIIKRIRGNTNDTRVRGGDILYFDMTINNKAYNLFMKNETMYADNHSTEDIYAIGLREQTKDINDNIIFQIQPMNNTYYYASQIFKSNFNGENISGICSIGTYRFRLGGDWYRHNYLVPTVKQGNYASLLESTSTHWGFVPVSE

The target of another experiment is T2, BoNT/D (Clostridium botulinum, UniProt P19321 2-1276).
T2 sequence: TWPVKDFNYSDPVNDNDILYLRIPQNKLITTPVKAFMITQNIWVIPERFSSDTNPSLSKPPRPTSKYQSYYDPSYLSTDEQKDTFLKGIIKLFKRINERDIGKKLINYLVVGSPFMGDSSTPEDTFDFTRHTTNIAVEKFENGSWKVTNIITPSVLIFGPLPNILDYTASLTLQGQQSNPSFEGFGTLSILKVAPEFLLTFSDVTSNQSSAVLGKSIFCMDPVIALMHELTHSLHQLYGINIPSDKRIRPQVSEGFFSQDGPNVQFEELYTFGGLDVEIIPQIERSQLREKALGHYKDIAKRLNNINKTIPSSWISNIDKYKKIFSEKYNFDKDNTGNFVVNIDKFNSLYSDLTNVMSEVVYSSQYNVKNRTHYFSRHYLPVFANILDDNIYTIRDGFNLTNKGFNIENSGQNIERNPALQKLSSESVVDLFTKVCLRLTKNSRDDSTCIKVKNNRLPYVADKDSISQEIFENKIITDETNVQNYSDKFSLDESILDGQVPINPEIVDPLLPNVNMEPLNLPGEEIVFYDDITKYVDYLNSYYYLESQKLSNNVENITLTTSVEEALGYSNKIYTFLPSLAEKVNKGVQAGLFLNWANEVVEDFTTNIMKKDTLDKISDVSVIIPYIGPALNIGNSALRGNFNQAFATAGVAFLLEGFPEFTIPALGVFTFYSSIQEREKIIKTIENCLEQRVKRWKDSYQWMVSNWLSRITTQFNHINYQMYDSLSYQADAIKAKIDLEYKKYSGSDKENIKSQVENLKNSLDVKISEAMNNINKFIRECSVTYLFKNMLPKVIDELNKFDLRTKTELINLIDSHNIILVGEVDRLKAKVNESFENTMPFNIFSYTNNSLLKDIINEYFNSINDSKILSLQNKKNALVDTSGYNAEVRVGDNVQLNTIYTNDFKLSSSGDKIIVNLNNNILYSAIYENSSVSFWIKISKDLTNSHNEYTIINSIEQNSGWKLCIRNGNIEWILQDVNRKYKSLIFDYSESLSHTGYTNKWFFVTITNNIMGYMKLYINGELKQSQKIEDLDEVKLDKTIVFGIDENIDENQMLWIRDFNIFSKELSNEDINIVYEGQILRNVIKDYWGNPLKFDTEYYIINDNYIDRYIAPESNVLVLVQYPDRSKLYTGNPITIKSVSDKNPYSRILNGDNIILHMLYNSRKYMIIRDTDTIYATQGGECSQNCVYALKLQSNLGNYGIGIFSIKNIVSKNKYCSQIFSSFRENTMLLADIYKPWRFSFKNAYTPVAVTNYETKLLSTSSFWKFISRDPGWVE

Chain of BoNT/A2 holotoxin (FRI-H1A2) (Q45894 2-1296): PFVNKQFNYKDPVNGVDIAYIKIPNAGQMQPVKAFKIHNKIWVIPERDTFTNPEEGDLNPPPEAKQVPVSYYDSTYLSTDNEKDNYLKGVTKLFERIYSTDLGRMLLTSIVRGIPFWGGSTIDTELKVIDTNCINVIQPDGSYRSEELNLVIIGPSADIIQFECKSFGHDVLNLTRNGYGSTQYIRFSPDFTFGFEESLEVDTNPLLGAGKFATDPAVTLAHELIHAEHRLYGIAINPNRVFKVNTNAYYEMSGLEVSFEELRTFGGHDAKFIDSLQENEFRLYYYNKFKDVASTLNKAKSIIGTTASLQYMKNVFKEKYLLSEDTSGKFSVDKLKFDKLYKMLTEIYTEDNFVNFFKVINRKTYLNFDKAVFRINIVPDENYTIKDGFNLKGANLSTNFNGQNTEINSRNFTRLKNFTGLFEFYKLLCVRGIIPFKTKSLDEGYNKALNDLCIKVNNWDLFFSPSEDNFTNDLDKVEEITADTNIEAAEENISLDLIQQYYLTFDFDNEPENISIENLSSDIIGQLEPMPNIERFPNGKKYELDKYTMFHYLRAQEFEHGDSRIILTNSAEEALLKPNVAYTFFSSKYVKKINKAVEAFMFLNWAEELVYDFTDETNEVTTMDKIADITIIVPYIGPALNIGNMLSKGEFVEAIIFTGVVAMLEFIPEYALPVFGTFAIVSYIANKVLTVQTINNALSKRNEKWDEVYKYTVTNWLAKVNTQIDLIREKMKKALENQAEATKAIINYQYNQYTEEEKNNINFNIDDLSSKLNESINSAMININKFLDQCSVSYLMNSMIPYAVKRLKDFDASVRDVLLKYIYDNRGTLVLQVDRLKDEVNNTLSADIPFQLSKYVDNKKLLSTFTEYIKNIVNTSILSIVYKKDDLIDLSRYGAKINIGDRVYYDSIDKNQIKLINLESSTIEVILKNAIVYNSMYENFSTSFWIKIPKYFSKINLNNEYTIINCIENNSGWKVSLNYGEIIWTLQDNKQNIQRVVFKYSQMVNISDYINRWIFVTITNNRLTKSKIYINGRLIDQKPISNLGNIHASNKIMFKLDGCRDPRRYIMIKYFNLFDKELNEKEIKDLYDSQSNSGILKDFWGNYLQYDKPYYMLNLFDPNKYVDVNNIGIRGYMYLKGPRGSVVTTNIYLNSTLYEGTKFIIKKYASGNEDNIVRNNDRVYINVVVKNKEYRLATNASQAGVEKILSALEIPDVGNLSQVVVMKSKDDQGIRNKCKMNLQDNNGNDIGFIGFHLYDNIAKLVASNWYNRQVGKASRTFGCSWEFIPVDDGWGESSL

B1: ING2 scFv (scFv, V domains shown)
VH: QVQLVQSGAEVKKPGSSVKVSCKASGDTFNRNAIAWVRQAPGQGLEWMGRIIPNLRTTHYAQKFQGRVAITADKHTNTVFMELSSLRSEDTAVYYCARDPYYYSYMDVWGKGTTVTVSS
VL: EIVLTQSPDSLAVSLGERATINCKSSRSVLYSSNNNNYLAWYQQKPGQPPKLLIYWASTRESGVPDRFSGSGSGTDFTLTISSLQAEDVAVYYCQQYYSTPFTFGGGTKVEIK
As for B1, the Kd was more than 16300 pM in experiment [1], 110 pM in experiment [2] and 120 pM in experiment [3].

B2: 4C10 scFv (scFv, V domains shown)
VH: QVQLVESGGGAVQPGESLRLSCAASGFTFSGFDMHWVRQSPGRGLEWVARISHDGSMADYADSLRGRFTISRDNPKNTLYLHMNSLRVEDTALYYCAKDRWRSGSYPAFEKWGQGTMVTVSS
VL: QSVPTQPASVSGSPGQSITISCTGTSSDVGAYNYVSWYQQHPGKAPKLMIYDVSDRPSGVSNRFSGSKSGNTASLTISGLQAEDEADYYCSSYTSSSTYVFGTGTKLTVL
notes: human
The molecule B2 came in with a dissociation constant (Kd) with BoNT/C1 holotoxin of 390 pM.

B3: 4C2 scFv (scFv, V domains shown)
VH: EVQLVQSGGNLVQPGGSLRLSCTASGFIFSNHWMQWVRQIPGKGLMWVSRINDSGRSTSYAGFVKGRFTMSRDNAKNTLFLQMNSLTAEDTGVYYCVRETWEVLGHLGYEVLDHWGLGTLVTVSS
VL: DIVMTQSPSSLSASVGDRVTITCRASQGISSYLAWYQQKPGKAPKLLIYAASTLQSGVPSRFSGSGSGTEFTLTISSLQPEDFATYYCQQLNSYPRTFGQGTKVDIK
notes: human
As for B3, the affinity with BoNT/C1 holotoxin, expressed as Kd, was 190 pM.

B4: 1C1 scFv (scFv, V domains shown)
VH: QVQLQESGSGLVKPSQSLSLTCAVSGGSISSGDYSWSWIRQPPGEGLEWIGYIFPRGSTYYNPSLRSRVTMSVDRSKNQFSLSLNSVTAADTAVYYCARTKMGAAEGVFDYWGQGTLVTVSS
VL: DIVMTQSPSTLSASVGDRVTITCRASQSVSTWLAWYQQKPGKAPNLLISEASNLESGVPSRFSGSGSGTEFTLTISSLQPDDFAIYYCQQYNSYVWTFGQGTKLEIK
notes: human
As for B4, the binding result in the experiment with BoNT/D is listed as “no binding (tested: ~1 µM)”. The dissociation constant (Kd) with BoNT/C1 holotoxin turned out to be 500 pM.

B5: 1C1.1 scFv (scFv, V domains shown)
VH: QVQLQESGSGLVKPSQSLSLTCAVSGGSISSGDYSWSWIRQPPGEGLEWIGYIFPRGSTYYNPSLRSRVTMSVDRSKNQFSLSLNSVTAADTAVYYCARTKMGAAEGVFDYWGQGTLVTVSS
VL: EIVLTQSPSSLPASVGDRVTITCRASQSIGTYLNWYQHKPGSAPKLLINAASSLQSGVPSRFSGSGSGTDFTLTISSLQPDDFATYYCQQYNSYTWTFGQGTKVGIK
notes: human
As for B5, the binding result with BoNT/D is on record as “no binding (tested: ~1 µM)”. In the experiment with BoNT/C1 holotoxin, this molecule yielded a Kd of 150 pM.

B6: 1D9 scFv (scFv)
scFv: EVKLVESGGDLVKPGGSLKLSCAASGFTFSSYGMSWVRQTPDKRLEWVATISSGGSYTYYPDNVKGRFTISRDNAKNNLFLQMSHLKSEDTAMYYCARDWDYYYGSYWYFDVWGTGTSVTVSSVDLKSGGSTSGSGKPGSGEGSSGSARENVLTQSPAILSASPGEKVTMTCRASSSVSYMHWYQQKPGSSPRLLIYDTSNLASGVPVRFSGSGSGTSYSLTISRMEAEDAATYYCQQWSSYPYTFGGGTKLEIK
notes: mouse
Regarding B6, the Kd in experiment [1] was 9130 pM. For the same molecule, the binding result in experiment [2] and in experiment [3] was “no binding” each time.

B7: 1C8 scFv (scFv, V domains shown)
VH: QVQLQQSGAEVKKPGASVKVSCKASAFTFNSNYIHWVRLAPGQGPEWMGIINPDGGRTTYAQKFQGRITMTTDTSTYAVYMELSSLRSEDTAVYYCARGATNIPYGMSVWGQGTTVTVSS
VL: DIVMTQSPSSLSASVGDRVTITCRASQAIRNDLGWYQQEPGKAPKLLIYAASTLQSGVPSRFSGRGSGTDFTLTISSLQPEDFATYYCLQHNSYPLTFGGGTKVDIK
notes: human
On to B7, for which, in the experiment with BoNT/C1 holotoxin, the equilibrium dissociation constant (Kd) was found to be 42000 pM.

B8: 8DC15 scFv (scFv, V domains shown)
VH: QVQLQESGPGLLKPSQTLSLTCSVSGGSMITGGYYWTWVRQLPGKGLEWIGHVYYTGKTYYNPSLNGRFTIAIDTSKNQFSLNLNSVTATDTAVFYCARAIWGGWYFDLWGQGTLVTVSS
VL: DIQMTQSPSSLSASVGDRITITCRASRDIRDDLAWYQQKPGKAPKLLIYAASSLQSGVPSRFSGSGSGTEFTLTISSLQPEDFATYYCQQANSFPLTFGGGTKVDIK
notes: human
As for B8, the binding result in the experiment with BoNT/D is listed as “no binding (tested: ~1 µM)”.

B9: 9B2 scFv (scFv)
scFv: QVQLQQSGAELVRPGASVKLSCTASGFNIEDDYMHWVKQRPEQGLEWIGRIDPANGNTEYAPKFQDKATITADTSSNTAYLQLSRLTSEDTAVYYCARGGWLGNYYAMDYWGQGTSVTVSSVDLKSGGSTSGSGKPGSGEGSSGSARDIVMTQTPLTLSVTIGQPASISCRSSQSLLHNYGNTYLHWYLQKPGQSPKLLIYKVSNRFSGVPDRFSGSGSGTDFTLKISRVEAEDLGVYFCSQGTHVPWTFGGGTKLEIK
notes: mouse
As for B9, the dissociation constant (Kd) in experiment [1] amounted to 670 pM; in experiment [2], 232000 pM; in experiment [3] it was 154000 pM.

B10: 1H5 scFv (scFv)
scFv: EVQLQQSGAELVRPGTSVKLSCKASDYTFTNYWTHWVKQRPGQGLEWIGVIDPSDSYTNYNQKFKGKATLTVDTSSSTAYMQLSSLTSEDSAVYYCARGYYDTMDYWGQGTTVTVSSVDLKSGGSTSGSGKPGSGEGSSGSARDIVLTQSPASLAVSLGQRATISCRASESVDYDGDSYMNWYQQKPGQPPKLLIYAASNLESGIPARFSGSGSGTDFTLNIHPVEEEDAATYYCLQSNEAPWTFGGGTKLEIK
notes: mouse
On to B10, for which, in experiment [1], the Kd is 10600 pM. The binding result in experiment [2] and in experiment [3] was “no binding” each time.

B11: 12A11 scFv (scFv)
scFv: DVQLQESGPGLVKPSQSLSLTCSVTGYSITGGYYWNWIRQFPGNKLEWMGYISYDGSNNYNPSLKNRISITRDTSKNQFFLKLNSVTTEDTATYYCARNMGLWYFDVWGTGTPVTVSAVDLKSGGSTSGSGKPGSGEGSSGSARQIVLTQSPANLSASPGEKVTMTCSASSSVSYMHWYQQKPGSSPKPWIYATSNLASGVPARFSGSGSGTSYSLTISRMEAEDAATYYCQQWSSYPPMYTFGGGTKLELK
notes: mouse
As to B11, the results for the Kd in experiment [1], in experiment [2] and in experiment [3] were 25800 pM, 660 pM and 2080 pM, respectively.

The values are drawn from patent publication US20220089784A1 (University of California, published 2022).
